Results as given in patent publication EP1230261B1 (LUDWIG INSTITUTE FOR CANCER RESEARCH, dated 2008).

What follows are binders tested against T1, HLA-A*0201 molecules on T2 cells (CEMX721.174.T2) (human) (assay: cell-based or functional assay).

Binder	Relative competitor activity (inhibition of CTL lysis of T2 cells given SEQ ID NO:4)
SLLMWITQCFL [NY-ESO-1 157-167 peptide SLLMWITQCFL (SEQ ID NO:1)]	0.04 relative to FluMA 58-66 (SEQ ID NO:5)
SLLMWITQL [NY-ESO-1 157-C165L peptide SLLMWITQL (SEQ ID NO:7)]	0.5 relative to FluMA 58-66 (SEQ ID NO:5)
QLSLLMWIT [NY-ESO-1 155-163 peptide QLSLLMWIT (SEQ ID NO:3)]	0.01 relative to FluMA 58-66 (SEQ ID NO:5)

Target: T1, HLA-A*0201 molecules on T2 cells …
Assay: cell-based or functional assay
Remark: another data set of the same source

Binder	Competitor activity [mM] 50% [mM]	Relative competitor activity to SEQ ID NO:2
SLAMWITQA [peptide SLAMWITQA (SEQ ID NO:22)]	0.001	270 relative to SEQ ID NO:2
SLLMWITAA [peptide SLLMWITAA (SEQ ID NO:27)]	0.00018	1500 relative to SEQ ID NO:2
SLLMWITQCFL [NY-ESO-1 157-167 peptide SLLMWITQCFL (SEQ ID NO:1)]	0.02	13 relative to SEQ ID NO:2
SLLMWITQL [NY-ESO-1 157-C165L peptide SLLMWITQL (SEQ ID NO:7)]	0.002	130 relative to SEQ ID NO:2
SALMWITQA [peptide SALMWITQA (SEQ ID NO:21)]	0.01	27 relative to SEQ ID NO:2
SLLMWATQA [peptide SLLMWATQA (SEQ ID NO:25)]	0.01	27 relative to SEQ ID NO:2
SLLMWITQV [NY-ESO-1 157-C165V peptide SLLMWITQV (SEQ ID NO:8)]	6e-05	
SLLAWITQA [peptide SLLAWITQA (SEQ ID NO:23)]	< 0.0001	> 2700 relative to SEQ ID NO:2
SLLMWITQS [peptide SLLMWITQS (SEQ ID NO:19)]	0.02	13 relative to SEQ ID NO:2
SLLMAITQA [peptide SLLMAITQA (SEQ ID NO:24)]	0.004	68 relative to SEQ ID NO:2
QLSLLMWIT [NY-ESO-1 155-163 peptide QLSLLMWIT (SEQ ID NO:3)]	0.03	9 relative to SEQ ID NO:2
ALLMWITQA [peptide ALLMWITQA (SEQ ID NO:20)]	0.0013	208 relative to SEQ ID NO:2
SLLMWIAQA [peptide SLLMWIAQA (SEQ ID NO:26)]	0.0002	1350 relative to SEQ ID NO:2

What follows are binders tested against T1, HLA-A*0201 molecules on T2 cells … (assay: functional competition assay).

Binder	fold reduction in peptide binding (against the base peptide SEQ ID NO:6) [fold]
SALMWITQA [peptide SALMWITQA (SEQ ID NO:21)]	100
